Reference: article PMC3263374

Biological target: ApoE 130-149 (Homo sapiens) (UniProt P02649)
Assay: NMR
Conditions: modification not given

ApoE 130-149 (Homo sapiens), sequence (P02649 130-149): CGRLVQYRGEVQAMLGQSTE

Substance | Kd [µM]
LDLR LA4 (in LA45), P01130 | 405
LDLR LA5 (in LA45), P01130 | 730
